Assay results from doi:10.1101/2025.06.12.659319.

T1: ΔNp63α (RLuc- and YFP-fusions, full length) (human), Q9H3D4
T1 chain: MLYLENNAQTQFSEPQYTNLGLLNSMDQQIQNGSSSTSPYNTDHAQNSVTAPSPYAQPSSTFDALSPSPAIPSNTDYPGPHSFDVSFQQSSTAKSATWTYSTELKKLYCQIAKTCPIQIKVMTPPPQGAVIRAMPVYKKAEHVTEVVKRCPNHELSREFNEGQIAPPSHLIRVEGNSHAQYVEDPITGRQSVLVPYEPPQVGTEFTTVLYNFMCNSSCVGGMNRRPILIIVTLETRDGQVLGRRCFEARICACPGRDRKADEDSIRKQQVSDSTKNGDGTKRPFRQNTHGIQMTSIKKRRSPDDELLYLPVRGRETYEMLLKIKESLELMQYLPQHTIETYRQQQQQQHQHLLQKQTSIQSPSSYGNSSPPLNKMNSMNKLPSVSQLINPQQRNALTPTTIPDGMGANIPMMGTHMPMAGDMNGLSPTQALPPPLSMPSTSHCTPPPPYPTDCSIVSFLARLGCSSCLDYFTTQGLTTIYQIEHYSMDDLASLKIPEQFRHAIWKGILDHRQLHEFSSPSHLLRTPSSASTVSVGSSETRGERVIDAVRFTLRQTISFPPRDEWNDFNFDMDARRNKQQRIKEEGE


What was measured:
[1] = target: FITC-ΔNp63α NLSbip peptide (residues 278-302) (human); test: fluorescence polarisation
[2] = target: T1, ΔNp63α (RLuc- and YFP-fusions, full …); test: FRET or BRET; settings: remark: other sources report otherwise

Kd [1] [nM]	BRET ratio [2]	Molecule
4.3		human IMPα1ΔIBB (importin α1 lacking the IMPβ1 binding domain) (domain or fragment)
6.7		human IMPα3ΔIBB (importin α3 lacking the IMPβ1 binding domain) (domain or fragment)

More lines, now with the values behind:

Molecule	Kd [1] [nM]	BRET ratio [2]
human IMPα7ΔIBB (importin α7 lacking the IMPβ1 binding domain) (domain or fragment)	4.6	
ΔNp63α (RLuc- and YFP-fusions, full length), Q9H3D4-2 1-586 (natural protein) MLYLENNAQTQFSEPQYTNLGLLNSMDQQIQNGSSSTSPYNTDHAQNSVTAPSPYAQPSSTFDALSPSPAIPSNTDYPGPHSFDVSFQQSSTAKSATWTYSTELKKLYCQIAKTCPIQIKVMTPPPQGAVIRAMPVYKKAEHVTEVVKRCPNHELSREFNEGQIAPPSHLIRVEGNSHAQYVEDPITGRQSVLVPYEPPQVGTEFTTVLYNFMCNSSCVGGMNRRPILIIVTLETRDGQVLGRRCFEARICACPGRDRKADEDSIRKQQVSDSTKNGDGTKRPFRQNTHGIQMTSIKKRRSPDDELLYLPVRGRETYEMLLKIKESLELMQYLPQHTIETYRQQQQQQHQHLLQKQTSIQSPSSYGNSSPPLNKMNSMNKLPSVSQLINPQQRNALTPTTIPDGMGANIPMMGTHMPMAGDMNGLSPTQALPPPLSMPSTSHCTPPPPYPTDCSIVSFLARLGCSSCLDYFTTQGLTTIYQIEHYSMDDLASLKIPEQFRHAIWKGILDHRQLHEFSSPSHLLRTPSSASTVSVGSSETRGERVIDAVRFTLRQTISFPPRDEWNDFNFDMDARRNKQQRIKEEGE		0.18
